Measurements: patent US9090897B2, “Production of IFN-lambda by conventional dendritic cells” (Bavarian Nordic A/S, priority 2009, dated 2015)
Entries after “also recorded” stand apart in the source; their conditions may differ.

Tests used:
mice [1] = experiment: In vivo challenge (i.v.), serum IFN-λ and IFN-α by ELISA; parameters: species or system mouse
mice [2] = experiment: as above; parameters: species or system mouse; details: for IFN-λ production to poly IC after growth factor treatment: FL-KO mice treated 7 days with 10 μg growth factor per day, then 100 μg poly IC i.v., 3-4 h
Experimental: Mice were injected i.v. into the lateral tail vein with 100 μg poly IC (Axxora) and serum was collected 3-4 h after challenge. Sera were pre-diluted 1/5, […] was analyzed by ELISA as described (Hochrein et al., 2004). IFN-λ was determined by an IFN-λ3 (IL-28B) ELISA (R&D Systems).

CD8α+ cDCs = experiment: In vitro stimulation of FL expanded ex-vivo isolated splenic CD8α+ cDCs, IFN-λ; type: cell-based, mouse; details: 5×10^5/ml, IL-3+GM-CSF+IL-4+IFN-γ, 100 μg/ml, 18 h
Experimental: (§1) FIG. 13 depicts that in vivo FL expanded CD8α+cDCs and eCD8α cDCs selectively produce IFN-λ to poly AU in vitro. Highly purified FL expanded ex-vivo isolated splenic 5×10^5/ml were stimulated in the presence of IL-3+GM-CSF+IL-4+IFN-γ with either poly IC (100 μg/ml) or poly AU (100 μg/ml). After 18 h supernatants were analyzed for IFN-λ.
(§2) To see if the IFN-λ production to poly AU seen in vivo would correspond with the same cells as in response to poly IC we enhanced the amount of DC in mice with FL treatment and sorted CD8α+ cDCs, eCD8α cDCs and CD11b+/CD172a+cDCs. Those cells were stimulated with poly IC or poly AU.

eCD8α cDCs = experiment: In vitro stimulation of FL expanded ex-vivo isolated splenic eCD8α cDCs, IFN-λ; type: cell-based, mouse; details: 5×10^5/ml, IL-3+GM-CSF+IL-4+IFN-γ, 100 μg/ml, 18 h
Experimental: as §1, §2

splenic CD8+ cDC = experiment: In vitro stimulation of sorted splenic CD8+ cDCs, cytokines in supernatant (IFN-λ ELISA, IL-12p70 FlowCytomix); type: cell-based, mouse; details: for IFN-λ production in combination with poly IC: stimulus added together with poly IC, IL-3 and GM-CSF, 18 h; for effect of cytokine on IFN-λ production / effect of cytokine on IL-12p70 production: combinatory stimulus poly IC+CpG-1668, cytokine 10 ng/ml
From the text: DC subsets were isolated from pooled mouse spleens as described (Vremec et al., 2007). Briefly, spleens were chopped, digested with collagenase (Worthington Biochemical) and DNase (Roche) at room temperature, and treated with EDTA. Low-density cells were enriched by density centrifugation; non-DC lineage cells were coated with mAbs (anti-CD3, KT3-1.1; anti-Thy-1, T24/31.7; anti Gr-1, 1A8; anti-CD19, ID3; anti-erythrocytes, TER119 and anti-NK cells, DX5) and depleted using anti-rat Ig magnetic beads (Qiagen). Dead cells were excluded by propidium iodide staining. cDC populations were sorted based on the expression of CD11c, CD45RA, CD4, CD8a and CD172a and pDCs were purified based on CD11c, CD45RA, and CD172a (all BD Biosciences) expression. Cell sorting was performed on a FACS Aria instrument (BD Biosciences).
Cells were stimulated in vitro with single TLR agonists or combinations thereof containing 10 μg/ml Pam3Cys (InvivoGen), 100 μg/ml poly IC (Axxora), 10 μg/ml LPS (E. coli; Sigma-Aldrich or Axxora), 10 μg/ml R848 (Axxora), 1 μM CpG-1668 or CpG-2216 (TIB-Molbiol), 1 μg/ml profilin of toxoplasma (Axxora). The recombinant cytokines mouse-IL-3, mouse-IL-4, rat-IFN-γ (PeproTech) and mouse-GM-CSF (Tebu-Bio) (10 ng/ml each) were added as indicated. The addition of IL-3 and GM-CSF was based on previous observations that GM-CSF promoted the production of IL-12p70 and that the combination of IL-3 and GM-CSF increased virus induced IFN-λ production in pDCs and cDCs (Hochrein et al., 2000; Hochrein et al., 2004). As source of a parapoxvirus Zylexis, which is used for veterinary purposes was purchased from a pharmacy. HSV-1, in replication deficient form known as disc HSV-1 (HSV-1d) was used as described (Hochrein et al., 2004). IFN-λ in supernatants was analyzed by ELISA and IL-12p70 was determined by FlowCytomix bead assay (Bender Medsystems) according to manufacturer's protocol.

polyadenylic:polyuridylic acid [poly AU]
systemic IFN-λ (mice [1]; mice, poly AU injection): not detectable | IFN-λ in the sera (mice [2]; mice, 100 or 500 μg i.v., sera after 3-4 h): induces IFN-λ; also recorded: induced IFN-λ in the sera of mice | IFN-λ production (CD8α+ cDCs): able to produce IFN-λ | IFN-λ production (eCD8α cDCs): able to produce IFN-λ

CCOCc1nc2c(N)nc3ccccc3c2n1CC(C)(C)O [R848]
IFN-λ production in combination with poly IC (splenic CD8+ cDC): unable to support poly IC induced IFN-λ production

CCCCCCCCCCCCCCCC(=O)N[C@@H](CSC[C@@H](COC(=O)CCCCCCCCCCCCCCC)OC(=O)CCCCCCCCCCCCCCC)C(=O)O [Pam3Cys]
IFN-λ production in combination with poly IC (splenic CD8+ cDC): synergistically increased IFN-λ production

B1: FL: Fms-related tyrosine kinase 3 ligand, growth factor involved in development of DCs (protein, UniProt P49771 27-235, looked up)
Fms-related tyrosine kinase 3 …: TQDCSFQHSPISSDFAVKIRELSDYLLQDYPVTVASNLQDEELCGGLWRLVLAQRWMERLKTVAGSKMQGLLERVNTEIHFVTKCAFQPPPSCLRFVQTNISRLLQETSEQLVALKPWITRQNFSRCLELQCQPDSSTLPPPWSPRPLEATAPTAPQPPLLLLLLLPVGLLLLAAAWCLHWQRTRRRTPRPGEQVPPVPSPQDLLLVEH
systemic IFN-λ response to poly IC challenge after growth factor treatment (mice [1]; FL treated WT mice): greatly increased systemic IFN-λ response | IFN-λ production to poly IC after growth factor treatment (mice [2]): not only restored, but even increased, their IFN-λ producing capacity above WT level

B2: IL-4: recombinant cytokine mouse-IL-4 (protein, UniProt P07750 21-140, looked up)
Interleukin-4: HIHGCDKNHLREIIGILNEVTGEGTPCTEMDVPNVLTATKNTTESELVCRASKVLRIFYLKHGKTPCLKKNSSVLMELQRLFRAFRCLDSSISCTMNESKSTSLKDFLESLKSIMQMDYS
effect of cytokine on IFN-λ production (splenic CD8+ cDC): not IFN-λ production | effect of cytokine on IL-12p70 production (splenic CD8+ cDC): increased IL-12p70

B3: M-CSF: M-CSF receptor ligand, growth factor (protein, UniProt P09603 33-554, looked up)
Macrophage colony-stimulating …: EEVSEYCSHMIGSGHLQSLQRLIDSQMETSCQITFEFVDQEQLKDPVCYLKKAFLLVQDIMEDTMRFRDNTPNAIAIVQLQELSLRLKSCFTKDYEEHDKACVRTFYETPLQLLEKVKNVFNETKNLLDKDWNIFSKNCNNSFAECSSQDVVTKPDCNCLYPKAIPSSDPASVSPHQPLAPSMAPVAGLTWEDSEGTEGSSLLPGEQPLHTVDPGSAKQRPPRSTCQSFEPPETPVVKDSTIGGSPQPRPSVGAFNPGMEDILDSAMGTNWVPEEASGEASEIPVPQGTELSPSRPGGGSMQTEPARPSNFLSASSPLPASAKGQQPADVTGTALPRVGPVRPTGQDWNHTPQKTDHPSALLRDPPEPGSPRISSLRPQGLSNPSTLSAQPQLSRSHSSGSVLPLGELEGRRSTRDRRSPAEPEGGPASEGAARPLPRFNSVPLTDTGHERQSEGSFSPQLQESVFHLLVPSVILVLLAVGGLLFYRWRRRSHQEPQRADSPLEQPEGSPLTQDDRQVELPV
IFN-λ production to poly IC after growth factor treatment (mice [2]): able to increase IFN-λ production to poly IC

B4: IFN-γ: recombinant cytokine rat-IFN-γ (protein, UniProt P01581 23-156, looked up)
Interferon gamma: QGTLIESLESLKNYFNSSSMDAMEGKSLLLDIWRNWQKDGNTKILESQIISFYLRLFEVLKDNQAISNNISVIESHLITNFFSNSKAKKDAFMSIAKFEVNNPQIQHKAVNELIRVIHQLSPESSLRKRKRSRC
effect of cytokine on IFN-λ production (splenic CD8+ cDC): enhanced the production of IFN-λ | effect of cytokine on IL-12p70 production (splenic CD8+ cDC): little effects on IL-12p70 production
